Measured values: paper PMC9475553, “SHF Acts as a Novel Tumor Suppressor in Glioblastoma Multiforme by Disrupting STAT3 Dimerization” (Advanced Science, 2022)

Key:
[1] = test system: intracranial U87 xenograft in nude mice; assay: Intracranial U87 xenograft tumor growth, bioluminescence; assay type: in vivo, mouse; details: female nude mice, 10 µg i.p. once every 2 days from third day after implantation; vs SC; n = 6, p < 0.01
Text: Considering that the SH2 domain predominantly represents the inhibition of SHF on STAT3 dimerization and activity, we speculated that this domain may be an optional target for GBM suppression. To this end, we analyzed the mechanical interaction of SHF and STAT3. The structures of human SHF (aa265‐421) and STAT3 (aa130‐715). both of which spanned their respective SH2 domain. were simulated by Swiss‐Model server (https://swissmodel.expasy.org/). To simulate the interaction of SHF and STAT3, Discovery studio 2018 was employed to complete protein‐protein docking using ZDOCK as an initial stage. A rigid body molecular docking algorithm utilizing a fast Fourier transform (FFT) algorithm was used to further improve performance for searching in translational space. […] Next, we determined the implication of C16 in tumor inhibition. […] A concentration of 25 uM was determined to be adequate for use in the subsequent experiments. […]
Figure 7 Peptide derived from the STAT3‐binding sites of SHF is an effective GBM suppressive strategy. […] B) IF staining determined the cell penetrability and nuclear‐localization of C16. […] The relative quantification of STAT3 dimerization was listed. […] The relative quantification of STAT3/DNMT1 interaction was listed. […] The relative quantification of STAT3/DNMT1 interaction was listed. […]

[2] = test system: STAT3/DNMT1 interaction; assay: IP assay: endogenous STAT3/DNMT1 interaction in U87 cells; assay type: cell-based, human; details: C16 for 2 h, n = 3, p < 0.01
Protocol: Figure 7 Peptide derived from the STAT3‐binding sites of SHF is an effective GBM suppressive strategy. A) Binding model between SHF and STAT3 using ZDOCK server. […] B) IF staining determined the cell penetrability and nuclear‐localization of C16. U251 cells were incubated with C16 or SC for 2 h and performed IF staining using the indicated antibodies. Bars, 10 µm. C) The statical analysis of adsorption equilibrium assay detecting the binding of C16 and SC with recombinant STAT3. D) Pull‐down assay indicating C16 binds STAT3. GST‐STAT3 was incubated with C16 or SC for 2 h, and the pull‐down assay was performed using Anti‐His magnetic beads. E) IP assay showing the effect of C16 on STAT3 dimerization. 293T cells transfected with indicated vectors were incubated with C16 for 2 h. The relative quantification of STAT3 dimerization was listed. F) IP assay detecting the effect of C16 on the interaction of STAT3 and DNMT1. […] The relative quantification of STAT3/DNMT1 interaction was listed. […] The relative quantification of STAT3/DNMT1 interaction was listed. […] Positive cells were quantified 20 randomly selected fields per mouse (n = 6, Student's t‐test, **p < 0.01). […]
Immunoprecipitation (IP) experiments were performed to analyze the protein interactions. […] Precipitated products were analyzed by Western blot using the specified antibodies. […]

[3] = molecular target: immobilized STAT3 (Homo sapiens, UniProt P40763); assay: Static adsorption equilibrium assay, immobilized STAT3; assay type: binding
Text: Considering that the SH2 domain predominantly represents the inhibition of SHF on STAT3 dimerization and activity, we speculated that this domain may be an optional target for GBM suppression. To this end, we analyzed the mechanical interaction of SHF and STAT3. The structures of human SHF (aa265‐421) and STAT3 (aa130‐715). both of which spanned their respective SH2 domain. were simulated by Swiss‐Model server (https://swissmodel.expasy.org/). To simulate the interaction of SHF and STAT3, Discovery studio 2018 was employed to complete protein‐protein docking using ZDOCK as an initial stage. A rigid body molecular docking algorithm utilizing a fast Fourier transform (FFT) algorithm was used to further improve performance for searching in translational space. All the available structures from PDB were used to calculate the docking poses and the structures obtained were subjected to energy minimization filtration using the smart minimize algorithm (Max steps 200, RMS gradient 0.01). The highest resulting ZDock score was used as the appropriate conformational pose. […] Since these two spots are located closely to one another, the sequence spanning amino acids 388–421 was used as a peptide design master. To obtain a peptide with high internalization efficiency and a strong half‐life, we introduced a palmitic acid at the N‐terminus of the master sequence and amidated the C‐terminus. The designed peptide was named C16. A scrambled peptide containing a scrambled sequence targeting Spot1 was named SC and served as a negative control peptide. […] The static adsorption equilibrium experiment of immobilized STAT3 peptide was used to detect the binding rate of the synthesized peptide with STAT3 (Figure 7C). The concentration of immobilized STAT3 used was 85 nmol g^−1 wet gel. […] Thus, C16 acted as a powerful inhibitor of STAT3 dimerization and associated activity. Next, we determined the implication of C16 in tumor inhibition. […] A concentration of 25 uM was determined to be adequate for use in the subsequent experiments. […] Further, the impact of C16 on tumor propagation was examined in an intracranial xenograft model. U87 cells expressing luciferase were implanted into mouse brains. The mice were injected intraperitoneally (i.p.) with C16 or SC once every 2 days from the third day after cell transplantation. […] To investigate the effect of C16 on cell proliferation, EdU was injected 24 h prior to sacrifice.
Figure 7 Peptide derived from the STAT3‐binding sites of SHF is an effective GBM suppressive strategy. A) Binding model between SHF and STAT3 using ZDOCK server. […] B) IF staining determined the cell penetrability and nuclear‐localization of C16. U251 cells were incubated with C16 or SC for 2 h and performed IF staining using the indicated antibodies. Bars, 10 µm. C) The statical analysis of adsorption equilibrium assay detecting the binding of C16 and SC with recombinant STAT3. D) Pull‐down assay indicating C16 binds STAT3. GST‐STAT3 was incubated with C16 or SC for 2 h, and the pull‐down assay was performed using Anti‐His magnetic beads. E) IP assay showing the effect of C16 on STAT3 dimerization. 293T cells transfected with indicated vectors were incubated with C16 for 2 h. The relative quantification of STAT3 dimerization was listed. F) IP assay detecting the effect of C16 on the interaction of STAT3 and DNMT1. […] The relative quantification of STAT3/DNMT1 interaction was listed. […] The relative quantification of STAT3/DNMT1 interaction was listed. […]

Sequence of immobilized STAT3 (P40763 whole entry, the tested form may be a part): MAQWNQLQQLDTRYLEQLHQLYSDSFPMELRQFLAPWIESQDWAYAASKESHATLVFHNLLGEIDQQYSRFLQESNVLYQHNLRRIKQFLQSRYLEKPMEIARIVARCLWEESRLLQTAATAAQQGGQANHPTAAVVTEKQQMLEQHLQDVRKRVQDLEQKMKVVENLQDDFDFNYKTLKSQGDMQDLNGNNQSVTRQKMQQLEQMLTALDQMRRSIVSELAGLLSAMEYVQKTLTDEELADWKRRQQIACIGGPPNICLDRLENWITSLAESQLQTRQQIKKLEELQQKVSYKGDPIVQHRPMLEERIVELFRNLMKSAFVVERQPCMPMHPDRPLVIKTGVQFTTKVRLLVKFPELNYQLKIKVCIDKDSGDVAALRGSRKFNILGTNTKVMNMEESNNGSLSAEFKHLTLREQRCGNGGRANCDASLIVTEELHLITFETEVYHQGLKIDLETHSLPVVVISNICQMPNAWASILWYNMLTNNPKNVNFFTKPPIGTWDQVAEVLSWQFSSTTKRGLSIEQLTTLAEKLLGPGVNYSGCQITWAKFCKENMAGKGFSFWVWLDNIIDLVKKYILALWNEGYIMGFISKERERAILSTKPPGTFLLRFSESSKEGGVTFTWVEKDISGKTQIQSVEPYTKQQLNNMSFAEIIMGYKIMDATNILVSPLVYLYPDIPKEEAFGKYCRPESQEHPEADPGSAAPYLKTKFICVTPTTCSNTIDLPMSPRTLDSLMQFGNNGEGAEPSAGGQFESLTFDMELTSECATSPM

**Q.** For “C16: peptide spanning SHF amino acids 388–421, palmitic acid at the N-terminus, amidated C-terminus, 3× His tags added to the C-terminal (PFSSVPEIVHHYASRKLPIKGAEHMSLLYPVAIR; palmitic acid at the N-terminus; amidated C-terminus; left off: 3× His tags, C-terminal, kept)”, which “growth of intracranial tumors” value [1] is on record?
**A.** potently inhibited the growth of intracranial tumors

**Q.** What about the “endogenous STAT3/DNMT1 interaction” value [2] of the same substance?
**A.** decrease

**Q.** And the “maximum static adsorption (Qmax)” value ([3]; immobilized STAT3 85 nmol g^−1 wet gel, peptide 2-20 µM in PBS, stirred 12 h, free peptide by NanoDrop absorbance 240 nm, Langmuir isotherm, mean ± SD)?
**A.** 86.13 ± 0.18 nmol g^−1 wet gel

**Q.** And the Kd ([3]; immobilized STAT3 85 nmol g^−1 wet gel, peptide 2-20 µM in PBS, stirred 12 h, free peptide by NanoDrop absorbance 240 nm, Langmuir isotherm, mean ± SD, read-out: equilibrium dissociation constant KD)?
**A.** 80 ± 20 nM

**Q.** What about the “interaction model (stoichiometry) with STAT3” value ([3]; maximum adsorption compared with actual amount of immobilized STAT3) of the same substance?
**A.** 1:1 interaction model

**Q.** And the “KD of C16 compared with that of the SC peptide” value ([3]; static adsorption on immobilized STAT3, C16 vs SC)?
**A.** two orders of magnitude lower than that of the SC peptide
